The record followed here is patent US10370436B2, “Anti-pseudomonas Psl binding molecules and uses thereof” (priority 2011, dated 2019).

For assay [1], the system named is P. aeruginosa strains PAO1, 33356, 6294, 6077. Description: P. aeruginosa acute pneumonia model, survival. The class given is in vivo, BALB/c mice. To be noted: strain 6077 (O11) 8×10^5 or 6×10^5 CFU; 5 and 1 mg/kg; FIGS. 6E, 6F. The method, then:
FIG. 6 (A-G): Survival rates for animals treated with anti-Psl monoclonal antibodies Cam-003 or WapR-004 in a P. aeruginosa acute pneumonia model. (A-D) Animals were treated with Cam-003 at 45, 15, and 5 mg/kg and R347 at 45 mg/kg or PBS 24 hours prior to intranasal infection with (A) PAO1 (1.6×10^7 CFU), (B) 33356 (3×10^7 CFU), (C) 6294 (7×10^6 CFU), (D) 6077 (1×10^6 CFU). (E-F) Animals were treated with WapR-004 at 5 and 1 mg/kg as indicated followed by infection with 6077 at (E) (8×10^5 CFU), or (F) (6×10^5 CFU). Animals were carefully monitored for survival up to 72 hours (A-D) or for 120 hours (E-F). (G) Animals were treated with Cam-003 at 15 mg/kg or 5 mg/kg, or R347 at 15 mg/kg 24 hours prior to intranasal infection with PAO1 (4.4×10^7 CFU), and Cam-003 at 15 mg/kg 24 hours prior to intranasal infection with PAO1ΔpslA (3×10^7 CFU). In all experiments, PBS and R347 served as negative controls. Results are represented as Kaplan-Meier survival curves; differences in survival were calculated by the Log-rank test for Cam-003 vs. R347. (A) Cam-003 (45 mg/kg—P<0.0001; 15 mg/kg—P=0.0003; 5 mg/kg—P=0.0033). (B) Cam-003 (45 mg/kg—P=0.0012; 15 mg/kg—P=0.0012; 5 mg/kg—P=0.0373). (C) Cam-003 (45 mg/kg—P=0.0007; 15 mg/kg—P=0.0019; 5 mg/kg—P=0.0212). (D) Cam-003 (45 mg/kg—P<0.0001; 15 mg/kg—P<0.0001; 5 mg/kg—P=0.0001). Results are representative of at least two independent experiments. […]

For assay [2], the system named is P. aeruginosa 6077 (O11-cytotoxic). The assay is described as follows: P. aeruginosa corneal infection (keratitis) model. The conditions noted are these: versus negative control-treated animals, 24 hours after infection. The class given is in vivo, mice. As to the method: FIG. 8 (A-G): Anti-Psl monoclonal antibodies Cam-003 and WapR-004 are active in a P. aeruginosa keratitis model and thermal injury model. Mice were treated with a control IgG1 antibody or Cam-003 at 45 mg/kg (A, B) or 15 mg/kg (C, D) or PBS or a control IgG1 antibody or Cam-003 at 45 mg/kg or WapR-004 at 45 mg/kg or 15 mg/kg or 5 mg/kg (F, G) 24 hours prior to infection with 6077 (O11-cytotoxic—2×10^6 CFU). Immediately before infection, three 1 mm scratches were made on the left cornea of each animal followed by topical application of P. aeruginosa in a 5 μl inoculum. 24 hours after infection, the corneal pathology scores were calculated followed by removal of the eye for determination of viable CFU. Differences in pathology scores and viable CFU were determined by the Mann-Whitney U-test. (A) P=0.0001, (B) P<0.0001, (C) P=0.0003, (D) P=0.0015. (F) and (G) Cam-003 (45 mg/kg) vs. WapR-004 (45 mg/kg): P=0.018; Cam-003 (45 mg/kg) vs. WapR-004 (15 mg/kg): P=0.0025; WapR-004 (45 mg/kg) vs. WapR-004 (15 mg/kg): P=0.1331; WapR-004 (5 mg/kg) vs. Ctrl: P<0.0001. Results are representative of five independent experiments. (E) Survival analysis from Cam-003 and R347 treated CF-1 mice in a P. aeruginosa thermal injury model after 6077 infection (2×10^5 CFU) (log-rank: R347 vs. Cam-003 15 mg/kg, P=0.0094; R347 vs. Cam-003 5 mg/kg, P=0.0017). […]

B1: WapR-004: anti-Psl antibody, VH SEQ ID NO: 11 and VL SEQ ID NO: 12 (antibody, V domains shown)
VH: EVQLLESGPGLVKPSETLSLTCNVAGGSISPYYWTWIRQPPGKGLELIGYIHSSGYTDYNPSLKSRVTISGDTSKKQFSLHVSSVTAADTAVYFCARGDWDLLHALDIWGQGTLVTVSS
VL: EIVLTQSPSSLSTSVGDRVTITCRASQSIRSHLNWYQQKPGKAPKLLIYGASNLQSGVPSRFSGSGSGTDFTLTISSLQPEDFATYYCQQSYSFPLTFGGGTKLEIK
modifications: WapR-004 VH; WapR-004 & WarR-004RAD VL
For B1, in assay [1], the survival entry was “significant concentration-dependent survival”. For the same molecule, the “bacterial counts in total eye homogenates” value in assay [2] was “reduced bacterial counts”. Besides, the corneal pathology entry in assay [2] (FIGS. 8A-D, F-G) is listed as “significantly less pathology”.
